We go through five compounds from US20260248972A1, “DUAL RECEPTOR TARGETING RADIOLIGANDS AND USES THEREOF RELATED APPLICATIONS” (priority 2022, published 2026).

In series [1] the target is T1, SSTR2 (Rattus norvegicus, UniProt P30680).
T1 construct: host or cells: AR42J cells
As to the kind of experiment: Competitive cell-binding assay on AR42J cells with 125I-C1 as competitive ligand. The procedure: AR42J cells (ATCC) were maintained in RPMI-1640 medium (Gibco) supplemented with 15% fetal bovine serum (Gibco) and 1% penicillin-streptomycin (BI) at 37° C. in a humidified incubator with 5% CO2. The culture medium was replaced with fresh medium every 2-3 days. Experiments were performed with cells at 70-80% confluence.
Binding Affinity Tested by Using ^125I-Labeled Competitive Ligands.
The binding affinities of test compounds were determined by a competitive cell-binding assay using ^125I-C1 and ^125I-C3 as the competitive ligand. The suspended AR42J cells at a density of 1~3×10^6 cells/mL in binding buffer (RPMI-1640 medium supplemented with 0.25% bovine serum albumin) were transferred to a MultiScreen-DV Filter Plate (Millipore) with 100 μL per well except the blank group where the binding buffer was used instead. The cells were then incubated with ^125I-C1 and ^125I-C3 (0.02 μCi/well) in the presence of increasing concentrations (0-10000 nM) of test compounds at 37° C. for 1 h (n=3). The final volume in each well was maintained at 200 μL and insufficient volume was adjusted by the binding buffer. After the 1 h incubation, unbound ^125I-competitive ligands were removed by filtration using a Multiscreen vacuum manifold (Millipore) followed by rinses with the binding buffer (3 times). The filters were collected, and their radioactivity were individually measured by γ counter (2480 WIZARD2, PerkinElmer). The best-fit IC50value (inhibitory concentration when 50% of the bound ^125I-C1 and ^125l I-C3 on cells were displaced) of test compounds were calculated by fitting the data with nonlinear regression using GraphPad Prism 8.0.1.

Series [2] in a line: in vivo. The following applies: BALB/c nude, mouse, in vivo, iv, total radioactivity. In outline:
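Tissue uptake given as % ID and % ID/g from γ counting of organs taken 4, 24 and 72 h after injection into BALB/c nude mice carrying subcutaneous AR42J xenografts (0.05-0.50 g). Tracers were ^177Lu-labelled at 95° C for 15 min in pH 4.5 NaOAc buffer and used neat or diluted in PBS containing 3 mg/mL ascorbate.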

T1 sequence (P30680 whole entry): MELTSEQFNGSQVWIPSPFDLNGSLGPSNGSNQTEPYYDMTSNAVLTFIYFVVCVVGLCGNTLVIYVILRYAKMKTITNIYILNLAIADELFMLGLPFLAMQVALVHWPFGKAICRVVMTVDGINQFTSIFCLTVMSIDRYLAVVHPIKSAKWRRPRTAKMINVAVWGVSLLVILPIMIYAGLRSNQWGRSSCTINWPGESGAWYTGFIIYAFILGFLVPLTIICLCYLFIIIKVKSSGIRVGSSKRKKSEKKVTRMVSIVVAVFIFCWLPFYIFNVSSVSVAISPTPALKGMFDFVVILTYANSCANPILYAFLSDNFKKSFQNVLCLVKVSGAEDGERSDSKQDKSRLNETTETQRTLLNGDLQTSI

In turn, `C[C@@H](O)[C@H](NC(=O)[C@@H]1CSSC[C@H](NC(=O)[C@@H](Cc2ccccc2)NC(=O)CN2CCN(CC(=O)O)CCN(CC(=O)O)CCN(CC(=O)O)CC2)C(=O)N[C@@H](Cc2ccc(O)cc2)C(=O)N[C@H](Cc2c[nH]c3ccccc23)C(=O)N[C@@H](CCCCN)C(=O)N[C@@H]([C@@H](C)O)C(=O)N1)C(=O)O` [Compound C-1, DOTA-f[CYwKTC]T-OH, reference compound] yielded a half-inhibitory concentration (IC50) in series [1] of 2.81 nM.
`C[C@@H](O)[C@H](NC(=O)[C@@H]1CSSC[C@H](NC(=O)[C@@H](Cc2ccccc2)NC(=O)COCCOCCNC(=O)COCCOCCNC(=O)[C@H](CCCCNC(=O)CC[C@H](NC(=O)CNC(=O)c2cccc(NC(=O)N[C@@H]3CN(C4CCCCC4)c4ccccc4N(CC(=O)C(C)(C)C)C3=O)c2)C(=O)O)NC(=O)CN2CCN(CC(=O)O)CCN(CC(=O)O)CCN(CC(=O)O)CC2)C(=O)N[C@@H](Cc2ccc(O)cc2)C(=O)N[C@H](Cc2c[nH]c3ccccc23)C(=O)N[C@@H](CCCCN)C(=O)N[C@@H]([C@@H](C)O)C(=O)N1)C(=O)O` [Compound I-2, DOTA-K(-gE-G-Z360)-OEG-OEG-f[CYwKTC]T-OH]: in series [1] (based on mean IC50, C-1 = 1.00), the “Relative Binding Affinity SSTR2” value came to 2.94.
In the case of `CC(C)(C)C(=O)CN1C(=O)[C@H](NC(=O)Nc2cccc(C(=O)N[C@@H](CCC(=O)N[C@@H](CCC(=O)N[C@@H](CCC(=O)N[C@@H](CCCCNC(=O)COCCOCCNC(=O)COCCOCCNC(=O)CCC(C(=O)O)N3CCN(CC(=O)O)CCN(CC(=O)O)CCN(CC(=O)O)CC3)C(N)=O)C(=O)O)C(=O)O)C(=O)O)c2)CN(C2CCCCC2)c2ccccc21` (some centres unmarked) [^177Lu-C-4, metal not drawn, reference compound], the tissue uptake at 4 h came to 0.09 %ID/g in series [2] (% ID/g Blood); 0.04 %ID/g in series [2] (% ID/g Femur); 0.07 %ID/g in series [2] (% ID/g Heart); 0.12 %ID/g in series [2] (% ID/g Intestine); 3.38 %ID/g in series [2] (% ID/g Kidney); 0.17 %ID/g in series [2] (% ID/g Liver). Also, the tissue uptake at 4 h in series [2] (% ID/g Lung) came out at 0.07 %ID/g; in series [2] (% ID/g Muscle), 0.02 %ID/g; in series [2] (% ID/g Pancreas) it was 0.03 %ID/g; in series [2] (% ID/g Spleen), 0.06 %ID/g; in series [2] (% ID/g Stomach), 0.06 %ID/g; in series [2] (% ID/g Tumor) it was 4.69 %ID/g. Besides, the tissue uptake at 24 h in series [2] (% ID/g Blood) worked out at 0.01 %ID/g; in series [2] (% ID/g Femur) it was 0.04 %ID/g; in series [2] (% ID/g Heart) it was 0.03 %ID/g; in series [2] (% ID/g Intestine), 0.04 %ID/g; in series [2] (% ID/g Kidney), 1.32 %ID/g; in series [2] (% ID/g Liver), 0.11 %ID/g. Further, the tissue uptake at 24 h in series [2] (% ID/g Lung) was determined as 0.03 %ID/g; in series [2] (% ID/g Muscle), 0.01 %ID/g; in series [2] (% ID/g Pancreas) it was 0.01 %ID/g; in series [2] (% ID/g Spleen), 0.02 %ID/g; in series [2] (% ID/g Stomach), 0.03 %ID/g; in series [2] (% ID/g Tumor), 1.44 %ID/g.
Regarding `C[C@@H](O)[C@H](NC(=O)[C@@H]1CSSC[C@H](NC(=O)[C@@H](Cc2ccccc2)NC(=O)[C@H](CCCCNC(=O)c2cccc(NC(=O)N[C@@H]3CN(C4CCCCC4)c4ccccc4N(CC(=O)C(C)(C)C)C3=O)c2)NC(=O)COCCOCCNC(=O)CN2CCN(CC(=O)O)CCN(CC(=O)O)CCN(CC(=O)O)CC2)C(=O)N[C@@H](Cc2ccc(O)cc2)C(=O)N[C@H](Cc2c[nH]c3ccccc23)C(=O)N[C@@H](CCCCN)C(=O)N[C@@H]([C@@H](C)O)C(=O)N1)C(=O)O` [^177Lu-I-35, metal not drawn], the tissue uptake at 4 h in series [2] (% ID/g Adrenal gland) was determined as 2.8 %ID/g; in series [2] (% ID/g Blood) it was 1.98 %ID/g; in series [2] (% ID/g Fat), 3.49 %ID/g; in series [2] (% ID/g Femur) it was 1.01 %ID/g; in series [2] (% ID/g Heart) it was 1.26 %ID/g; in series [2] (% ID/g Intestine), 2.36 %ID/g. Also, the tissue uptake at 4 h in series [2] (% ID/g Kidney) came out at 18.5 %ID/g; in series [2] (% ID/g Liver) it was 18.1 %ID/g; in series [2] (% ID/g Lung) it was 3.44 %ID/g; in series [2] (% ID/g Muscle) it was 0.42 %ID/g; in series [2] (% ID/g Pancreas), 5.03 %ID/g; in series [2] (% ID/g Spleen) it was 0.82 %ID/g. The figures for the tissue uptake at 4 h in series [2] (% ID/g Stomach) and in series [2] (% ID/g Tumor) were 6.98 %ID/g and 27.2 %ID/g, respectively. For the same compound, the tissue uptake at 24 h was determined as 2.3 %ID/g in series [2] (% ID/g Adrenal gland); 0.11 %ID/g in series [2] (% ID/g Blood); 0.75 %ID/g in series [2] (% ID/g Fat); 0.52 %ID/g in series [2] (% ID/g Femur); 0.56 %ID/g in series [2] (% ID/g Heart); 0.84 %ID/g in series [2] (% ID/g Intestine). Moreover, the tissue uptake at 24 h in series [2] (% ID/g Kidney) turned out to be 6.06 %ID/g; in series [2] (% ID/g Liver), 5.06 %ID/g; in series [2] (% ID/g Lung) it was 1.73 %ID/g; in series [2] (% ID/g Muscle), 0.12 %ID/g; in series [2] (% ID/g Pancreas) it was 0.96 %ID/g; in series [2] (% ID/g Spleen) it was 0.47 %ID/g. For the same compound, the tissue uptake at 24 h in series [2] (% ID/g Stomach) worked out at 3.09 %ID/g; in series [2] (% ID/g Tumor), 17.8 %ID/g. In addition, the tissue uptake at 72 h is 0.34 %ID/g in series [2] (% ID/g Adrenal gland); 0.03 %ID/g in series [2] (% ID/g Blood); 0.41 %ID/g in series [2] (% ID/g Fat); 0.21 %ID/g in series [2] (% ID/g Femur); 0.25 %ID/g in series [2] (% ID/g Heart); 0.72 %ID/g in series [2] (% ID/g Intestine). Moreover, the tissue uptake at 72 h in series [2] (% ID/g Kidney) was 4.51 %ID/g; in series [2] (% ID/g Liver) it was 2.41 %ID/g; in series [2] (% ID/g Lung), 0.66 %ID/g; in series [2] (% ID/g Muscle) it was 0.03 %ID/g; in series [2] (% ID/g Pancreas) it was 0.34 %ID/g; in series [2] (% ID/g Spleen) it was 0.28 %ID/g. Besides, the tissue uptake at 72 h in series [2] (% ID/g Stomach) was 2.29 %ID/g; in series [2] (% ID/g Tumor), 18 %ID/g.
As to `C[C@@H](O)[C@H](NC(=O)[C@@H]1CSSC[C@H](NC(=O)[C@@H](Cc2ccccc2)NC(=O)[C@H](CCCCNC(=O)COCCOCCNC(=O)c2cccc(NC(=O)N[C@@H]3CN(C4CCCCC4)c4ccccc4N(CC(=O)C(C)(C)C)C3=O)c2)NC(=O)CN2CCN(CC(=O)O)CCN(CC(=O)O)CCN(CC(=O)O)CC2)C(=O)N[C@@H](Cc2ccc(O)cc2)C(=O)N[C@H](Cc2c[nH]c3ccccc23)C(=O)N[C@@H](CCCCN)C(=O)N[C@@H]([C@@H](C)O)C(=O)N1)C(=O)O` [^177Lu-I-36, metal not drawn], the tissue uptake at 4 h in series [2] (% ID/g Adrenal gland) stood at 2.48 %ID/g; in series [2] (% ID/g Blood), 2.09 %ID/g; in series [2] (% ID/g Fat), 3.32 %ID/g; in series [2] (% ID/g Femur), 0.79 %ID/g; in series [2] (% ID/g Heart), 1.36 %ID/g; in series [2] (% ID/g Intestine), 2.27 %ID/g. For the same compound, the tissue uptake at 4 h in series [2] (% ID/g Kidney) is 20.7 %ID/g; in series [2] (% ID/g Liver), 12 %ID/g; in series [2] (% ID/g Lung), 2.89 %ID/g; in series [2] (% ID/g Muscle), 0.41 %ID/g; in series [2] (% ID/g Pancreas) it was 5.66 %ID/g; in series [2] (% ID/g Spleen) it was 0.97 %ID/g. The tissue uptake at 4 h was 6.6 %ID/g in series [2] (% ID/g Stomach) and 45.1 %ID/g in series [2] (% ID/g Tumor). The tissue uptake at 24 h was determined as 1.67 %ID/g in series [2] (% ID/g Adrenal gland); 0.7 %ID/g in series [2] (% ID/g Blood); 2.39 %ID/g in series [2] (% ID/g Fat); 0.76 %ID/g in series [2] (% ID/g Femur); 0.85 %ID/g in series [2] (% ID/g Heart); 1.29 %ID/g in series [2] (% ID/g Intestine). Further, the tissue uptake at 24 h came to 18.4 %ID/g in series [2] (% ID/g Kidney); 7.22 %ID/g in series [2] (% ID/g Liver); 1.72 %ID/g in series [2] (% ID/g Lung); 0.25 %ID/g in series [2] (% ID/g Muscle); 3.34 %ID/g in series [2] (% ID/g Pancreas); 0.85 %ID/g in series [2] (% ID/g Spleen). For the same compound, the figures for the tissue uptake at 24 h in series [2] (% ID/g Stomach) and in series [2] (% ID/g Tumor) were 5.96 %ID/g and 35.2 %ID/g, respectively. In addition, the tissue uptake at 72 h in series [2] (% ID/g Adrenal gland) was 0.87 %ID/g; in series [2] (% ID/g Blood), 0.21 %ID/g; in series [2] (% ID/g Fat), 1.12 %ID/g; in series [2] (% ID/g Femur), 0.59 %ID/g; in series [2] (% ID/g Heart) it was 0.47 %ID/g; in series [2] (% ID/g Intestine), 1.39 %ID/g. Besides, the tissue uptake at 72 h turned out to be 14.2 %ID/g in series [2] (% ID/g Kidney); 3.99 %ID/g in series [2] (% ID/g Liver); 1.36 %ID/g in series [2] (% ID/g Lung); 0.13 %ID/g in series [2] (% ID/g Muscle); 1.28 %ID/g in series [2] (% ID/g Pancreas); 0.36 %ID/g in series [2] (% ID/g Spleen). In addition, the tissue uptake at 72 h in series [2] (% ID/g Stomach) worked out at 3.8 %ID/g; in series [2] (% ID/g Tumor), 36.4 %ID/g.
